Test results published in the Human Domainome abundance scans (Beltran et al. 2025).
± gives the uncertainty stated by the source.

B1: Peripheral plasma membrane protein CASK, residues 488 to 569; numbered along this chain, O14936 (parent)
chain: VRLVQFQKNTDEPMGITLKMNELNHCIVARIMHGGMIHRQGTLHVGDEIREINGISVANQTVEQLQKMLREMRGSITFKIVP

Variants of: B1
Test: abundance fitness (aPCA) (normalised: wild type 0, dead -1); higher = more abundant; growth selection in yeast, the domain comes from the species named
Settings: Homo sapiens

Variant	abundance fitness
VRLVQFQKNTDEPMGITLKMNELNHCIVARIMHGGMIHEQGTLHVGDEIREINGISVANQTVEQLQKMLREMRGSITFKIVP [R39E]	-0.052 ± 0.026
VRLVQFQKNTDEPMGITLKMNELNHCIVARIMHGGMIHRQGTLHVGDEIREINGISVANQTMEQLQKMLREMRGSITFKIVP [V62M]	-0.052 ± 0.032
VRLVQFQKNTDEPMGITLKMNELNHCIVARIMHGGMIHRQGTLHVGDEIREINYISVANQTVEQLQKMLREMRGSITFKIVP [G54Y]	-0.056 ± 0.24
VRLVQFQKNTDEPMGITLKMNELNHCIVARIMHGGMIHRQGTLHVGDEIREINMISVANQTVEQLQKMLREMRGSITFKIVP [G54M]	-0.299 ± 0.088
VRLVQFQKNTDEPMGITLKMNELNHCIVARIMHGGMIHRQGTLHFGDEIREINGISVANQTVEQLQKMLREMRGSITFKIVP [V45F]	-0.457 ± 0.14
VRLVQFQKNTDEPMGITLKMNELNHCIVARIMHGGMIHRQGTLHRGDEIREINGISVANQTVEQLQKMLREMRGSITFKIVP [V45R]	-0.169 ± 0.043
VRLVQFQKNTDEPMGITLKMNELNHCIVARIMHGWMIHRQGTLHVGDEIREINGISVANQTVEQLQKMLREMRGSITFKIVP [G35W]	-0.422 ± 0.035
VRLVQFQKNTDEPMGITLKMNELNHCIVARIMHQGMIHRQGTLHVGDEIREINGISVANQTVEQLQKMLREMRGSITFKIVP [G34Q]	-0.151 ± 0.057
VRLVQFQKNTDEPMGITLKMNELNHCIVARIMHMGMIHRQGTLHVGDEIREINGISVANQTVEQLQKMLREMRGSITFKIVP [G34M]	-0.259 ± 0.057
VRLVQFQKNTDEPMGITLKMNELNHCIVARIMHGGMIHRQGTLHVGDEIREINGISVANQTVEQLQKMRREMRGSITFKIVP [L69R]	-1 ± 0.049
VRLVQFQKNTDEPMGITLKMNELAHCIVARIMHGGMIHRQGTLHVGDEIREINGISVANQTVEQLQKMLREMRGSITFKIVP [N24A]	-0.14 ± 0.023
VRLVQFQKNTDEPMGITLKMNELWHCIVARIMHGGMIHRQGTLHVGDEIREINGISVANQTVEQLQKMLREMRGSITFKIVP [N24W]	-0.467 ± 0.032
VRLVQFQKNTDEPMGITLKMNELNHCIVARIMHGGMIHRQGQLHVGDEIREINGISVANQTVEQLQKMLREMRGSITFKIVP [T42Q]	0.003 ± 0.031
VRLVQFQKNTDEPMGITLKMNELNHCIVARIMHGGMIHRQGCLHVGDEIREINGISVANQTVEQLQKMLREMRGSITFKIVP [T42C]	-0.025 ± 0.031
VRLVQFIKNTDEPMGITLKMNELNHCIVARIMHGGMIHRQGTLHVGDEIREINGISVANQTVEQLQKMLREMRGSITFKIVP [Q7I]	0.074 ± 0.036
VRLVQFQKNTDEPMGITLKMNELNHCIVADIMHGGMIHRQGTLHVGDEIREINGISVANQTVEQLQKMLREMRGSITFKIVP [R30D]	-0.012 ± 0.063
VRLVQFQKNTDEPMGITLKMNELNHCIVARIMHGGMIHRQGTLHVGDEIREINGESVANQTVEQLQKMLREMRGSITFKIVP [I55E]	0.026 ± 0.025
VRLVQFQKNTDEPMGITLKMNELNHCEVARIMHGGMIHRQGTLHVGDEIREINGISVANQTVEQLQKMLREMRGSITFKIVP [I27E]	-0.05 ± 0.03
VRLVQFQKNTDEPMGITLKMNELNHCIVARIMHGGMIHRQGTLHVGDEIREINGITVANQTVEQLQKMLREMRGSITFKIVP [S56T]	-0.028 ± 0.031
VRLVQFQKNTKEPMGITLKMNELNHCIVARIMHGGMIHRQGTLHVGDEIREINGISVANQTVEQLQKMLREMRGSITFKIVP [D11K]	-0.054 ± 0.061
VRLVQFQKNTDEPMGITLKMNELNHCIVARIMHGGMIHRQGTLHVGDEIREINGISVANQTVEQLQKMLRTMRGSITFKIVP [E71T]	-0.036 ± 0.034
VRLVQFQKNTDEPMGITLKMNELNHCIVARIMHGGMIHRQGTLHVGDEIREINGISVANQTVEQLQKMLRIMRGSITFKIVP [E71I]	-0.036 ± 0.061
VRLGQFQKNTDEPMGITLKMNELNHCIVARIMHGGMIHRQGTLHVGDEIREINGISVANQTVEQLQKMLREMRGSITFKIVP [V4G]	-0.677 ± 0.028

Variant	abundance fitness
VRLQQFQKNTDEPMGITLKMNELNHCIVARIMHGGMIHRQGTLHVGDEIREINGISVANQTVEQLQKMLREMRGSITFKIVP [V4Q]	-0.565 ± 0.045
VRLFQFQKNTDEPMGITLKMNELNHCIVARIMHGGMIHRQGTLHVGDEIREINGISVANQTVEQLQKMLREMRGSITFKIVP [V4F]	-0.094 ± 0.05
VRLVQFQKNTDEPMGITLKMNELNHCIVARIMHGGMIHRQGTLHVGDEIREINGISVANQTVEQLQKMLREMRGSVTFKIVP [I76V]	-0.01 ± 0.024
VRLVQFQKNTDEPMGITLKSNELNHCIVARIMHGGMIHRQGTLHVGDEIREINGISVANQTVEQLQKMLREMRGSITFKIVP [M20S]	-0.154 ± 0.033
VRLVQFQKNTDEPMGITLKMNELNHCIVARIMHGGMIHRQGTLHVGDEIREINGISVANQTVEQLQKMLREMRGAITFKIVP [S75A]	0.04 ± 0.027
VRLVQFQKNTDEPMGITLDMNELNHCIVARIMHGGMIHRQGTLHVGDEIREINGISVANQTVEQLQKMLREMRGSITFKIVP [K19D]	-0.016 ± 0.035
VRLVQFQKNTDEPMGITLKMNELNHCIVARIMHGGMIHRQGTLHVGDEIREINGISVANQTVEQLQKMLREMRGSIRFKIVP [T77R]	-0.088 ± 0.035
VRLVQFQKNTDEPMGITLKMNELNHCIVARIMHGGMIHRQGTLHVGDEIREINGISVANQTVEQLQKMLREMRGSIIFKIVP [T77I]	-0.026 ± 0.069
VRLVQFQKNTDEPMGITLKMGELNHCIVARIMHGGMIHRQGTLHVGDEIREINGISVANQTVEQLQKMLREMRGSITFKIVP [N21G]	-0.186 ± 0.026
VRLVQFQKNTDEPMGITLKMNELNHCIVARIMHGGMINRQGTLHVGDEIREINGISVANQTVEQLQKMLREMRGSITFKIVP [H38N]	-0.138 ± 0.055
VRLVQFQKNTDEPMGITLKMNELNHCIVARIMHGGMIHRQGTLHVGDEIREINGISVANQTVEQLQKMLREMRDSITFKIVP [G74D]	-0.131 ± 0.043
VRLVQFQKNTDEPMGITLKMNELNHCIVARIMHGGMIHRQGTLHVGDEIREINGISVANQTVEQWQKMLREMRGSITFKIVP [L65W]	-0.049 ± 0.028
VRLVQFQKNTDEPMGITLKMNELNHCIVARIMHGGMIHRQGTLHVGDEIREINGISVANQTVEQRQKMLREMRGSITFKIVP [L65R]	-0.449 ± 0.026
VRLVQSQKNTDEPMGITLKMNELNHCIVARIMHGGMIHRQGTLHVGDEIREINGISVANQTVEQLQKMLREMRGSITFKIVP [F6S]	-0.321 ± 0.027
VRLVQFQKNTDEPMGITLKMNELNHCIVARIMHGGMIHRQGTLHVGDEIREINGISVANQTVEQLQKMLREMRGSITFKIGP [V81G]	-0.106 ± 0.041
VRGVQFQKNTDEPMGITLKMNELNHCIVARIMHGGMIHRQGTLHVGDEIREINGISVANQTVEQLQKMLREMRGSITFKIVP [L3G]	-0.307 ± 0.023
VRLVQFQKNTDEPMGITLKMNELNHCIVARIMHGGMIHRQGTLHVGDEIREINGISVANQQVEQLQKMLREMRGSITFKIVP [T61Q]	-0.047 ± 0.031
VRLVQFQKNTDEPMGITLKMNELNHCIVARIMHGGMIHRQGTLHVGDEIREINGISVANQVVEQLQKMLREMRGSITFKIVP [T61V]	-0.329 ± 0.025
VRLVQFQKNTDEPMGITIKMNELNHCIVARIMHGGMIHRQGTLHVGDEIREINGISVANQTVEQLQKMLREMRGSITFKIVP [L18I]	-0.055 ± 0.098
VRLVQFQKNTDEPMGITLKMNELNECIVARIMHGGMIHRQGTLHVGDEIREINGISVANQTVEQLQKMLREMRGSITFKIVP [H25E]	0.019 ± 0.027
VRLVQFQKNTDEPMGITLKMNELNLCIVARIMHGGMIHRQGTLHVGDEIREINGISVANQTVEQLQKMLREMRGSITFKIVP [H25L]	-0.064 ± 0.025
VRLVQFQKNTDEPMGITLKMNELNICIVARIMHGGMIHRQGTLHVGDEIREINGISVANQTVEQLQKMLREMRGSITFKIVP [H25I]	-0.073 ± 0.047
VRLVQFQKNTDEPMGITLKMNEWNHCIVARIMHGGMIHRQGTLHVGDEIREINGISVANQTVEQLQKMLREMRGSITFKIVP [L23W]	0.007 ± 0.026

Variant	abundance fitness
VRLVQFQKNTDEPMGITLKMNELNHCIVARGMHGGMIHRQGTLHVGDEIREINGISVANQTVEQLQKMLREMRGSITFKIVP [I31G]	-1 ± 0.069
VRLVQFQKNTDEPMGITLKMNELNHCIVARIMHGGMIHRQGTLHVGDEIREINGISVSNQTVEQLQKMLREMRGSITFKIVP [A58S]	-0.035 ± 0.028
VRLVQFQKNTDEPMGICLKMNELNHCIVARIMHGGMIHRQGTLHVGDEIREINGISVANQTVEQLQKMLREMRGSITFKIVP [T17C]	-0.045 ± 0.034
VRLVQFQKNTDEPMGIVLKMNELNHCIVARIMHGGMIHRQGTLHVGDEIREINGISVANQTVEQLQKMLREMRGSITFKIVP [T17V]	0.003 ± 0.023
VRLVQFQKNTDEPMGINLKMNELNHCIVARIMHGGMIHRQGTLHVGDEIREINGISVANQTVEQLQKMLREMRGSITFKIVP [T17N]	-0.09 ± 0.032
VRLVQFQKNTDEPMGITLKMNELNHVIVARIMHGGMIHRQGTLHVGDEIREINGISVANQTVEQLQKMLREMRGSITFKIVP [C26V]	0.015 ± 0.023
VRLVQFQKNTDEPMGITLKMNELNHCIVARIMHGGMIHRQGTLHVGDEPREINGISVANQTVEQLQKMLREMRGSITFKIVP [I49P]	-0.743 ± 0.15
VRLVQFQKNTDEPMGITLKMNELNHCIVARIFHGGMIHRQGTLHVGDEIREINGISVANQTVEQLQKMLREMRGSITFKIVP [M32F]	0.086 ± 0.26
VRLVQFQKNTDEPMGITLKMNELNHCIVARIMHGGMIHRQGTLHVGDEIREINGISVANQTVEQLQKMLREMRGSITKKIVP [F78K]	-0.964 ± 0.15
VRLVQFQKNNDEPMGITLKMNELNHCIVARIMHGGMIHRQGTLHVGDEIREINGISVANQTVEQLQKMLREMRGSITFKIVP [T10N]	-0.075 ± 0.061
VRLVQFQKNTDEPMGITLKMNELNHCIVYRIMHGGMIHRQGTLHVGDEIREINGISVANQTVEQLQKMLREMRGSITFKIVP [A29Y]	-0.198 ± 0.11
VRLVQFQKNTDEPMGITLKMNELNHCIVARIMHGGMIHRQGTLHVGDEIREINGISVANQTVEQLQKMLREMRGSITFEIVP [K79E]	-0.113 ± 0.066
VRLVQFQKYTDEPMGITLKMNELNHCIVARIMHGGMIHRQGTLHVGDEIREINGISVANQTVEQLQKMLREMRGSITFKIVP [N9Y]	-0.088 ± 0.039
VRLVQFQKNTDEPMGITLKMNELNHCIVARIMHGGMIHRQGTLHVGDEIKEINGISVANQTVEQLQKMLREMRGSITFKIVP [R50K]	0.028 ± 0.045
VRLVQFQKNTDEPMGITLKMNELNHCIVARIMHGGMIHRQGTLHVGDEIREINGISVANETVEQLQKMLREMRGSITFKIVP [Q60E]	-0.085 ± 0.026
VRLVQFQKNTDEPMGITLKMNELNHCIVARIMHGGMIHRQGTLHVGHEIREINGISVANQTVEQLQKMLREMRGSITFKIVP [D47H]	-1.03 ± 0.27
VRLVQFQKNTDEPMGITLKMNELNHCIVARIMHGGMIHRQGTLHVGDEIREINGISVANQTVECLQKMLREMRGSITFKIVP [Q64C]	-0.004 ± 0.028
VRLVQFQKNTDEPMGITLKMNELNHCIVARIMFGGMIHRQGTLHVGDEIREINGISVANQTVEQLQKMLREMRGSITFKIVP [H33F]	-0.102 ± 0.062
VRLVQFQKNTDEPMGITLKMNELNHCIVARIMHGGMIHRQGTQHVGDEIREINGISVANQTVEQLQKMLREMRGSITFKIVP [L43Q]	-1.01 ± 0.1
VRLVQFQKNTDEPMGITLKMNELNHCIVARIMHGGMIHRQKTLHVGDEIREINGISVANQTVEQLQKMLREMRGSITFKIVP [G41K]	-0.1 ± 0.032
VRLVQFQFNTDEPMGITLKMNELNHCIVARIMHGGMIHRQGTLHVGDEIREINGISVANQTVEQLQKMLREMRGSITFKIVP [K8F]	-0.291 ± 0.051
